# Test results reported in patent US20140287419A1, “Compositions Having Dicamba Decarboxylase Activity and Methods of Use” (priority 2013, published 2014).
# B1: 37 (protein, listed as Burkholderia gladioli)
# chain: MATFSNVKKIALEEHFAIAETIEDSAGFVPPDDWVELRGRLLDIQERRLAEMDRAGIELMVLSLNAPAVQAIRDPRQAVELARRANDYLAEQVARRPDRFRAFAALPMQAPEQAIREAERCVRELGFVGALVNGFSEAEDGAELYYDLPRYRPFWAALEALEVPFYLHPRNPLAGRAPIYDGHSWLMGPTWAFGQETAVHALRLMGSGLFDAHPRLQIILGHMGEGLPYSMWRVDNRNAWVSAKPNYPAEKPIAEYFRNNFWLTTSGNFRTQTLIDAMLEIGSDRILFSADWPFENMDHAADWFDHASISENDRIKIGRGNAERLLKLGR
# B2: 38 (protein, listed as Variovorax paradoxus)
# chain: MAQGKIGLEEHFAIPQTLQDSAGFVPGVYWKELSSRLLDIHDGRLRQMDEHGMEMMILSLNAPAVQAVADPVKAYELAVRANDFLAEQVAKRPDRFQAFAALPMQDPEKATQELERCMSVLGFRGALVNGFSQVGTPDNVAYYDAPQYAPFWAAAERLDAPFYLHPRNPIASWAQIYEGHPWLLGPTWAFAQETAVHALRLMASGLFDRHPGLKIILGHLGEGLPYNMWRVDHRNAWVKAPKGYPAKRKLCEYFQENFYLTTSGNFRTQTLIDAMLEVGSDRILFSTDWPFENIDHASNWFNDTSISEADRKKIGRTNAMSLFKLA
# B3: 39 (protein, listed as Agrobacterium fabrum)
# chain: MAQGKVALEEHFAIPETLQDSAGFVPGDCWTELQHRLLDIQDTRLKLMDAHGIETMILSLNAPAVQAIPDKTKAIEIARRANDALAEECAKRPDRFLAFAALPLQDPDAATQELRRCVNDLGFVGALVNGFSQEGDGQTPLYYDLPQYRPFWGEVEKLDVPFYLHPRNPLPQDSRIYDGHPWLLGPTWAFAQETAVHALRLMASGLFDEHPRLDIILGHMGEGLPYMMWRIDHRNAWVKLPPRYPAKRRFVDYFNENFHITTSGNFRTQTLIDAILEIGADRILFSTDWPFENIDHASDWFHATSIAEADRVKIGRTNARRLFKLDGR
# B4: 40 (protein, listed as Rhodococcus jostii)
# chain: MAQGKIALEEHFAIPETLNDSAGFVPGTYWDELQARLLDIQDVRLKLMDEHNIETMILSLNAPAVQAIPERERAIDIARRANDVLAEECAKRPDRFRGFAALPLQDPDAAAEELRRCVTELGFVGALVNGFSQSATVDGGSTPLYYDLPRYRPFWAEVERLDVPFYLHPRNPLNQDARIYEGHPWLLGPTWAFAQETAVHALRLMASGLFDEHPGLRIVLGHMGEGIPAMLWRIDHRNAWVDVPPAYPAKRRMVDYFTENFFVTTSGNFRTQTLIDLLLELGSERVMFSTDWPFENINHAAEWFDAASISEADRLKIGRTNAATLFKLDR
# B5: 3 (protein, listed as Lactobacillus plantarum)
# chain: MAKLITVEEHFESAAVTAAMRQAVGNAVLPAVSPALRQYMRDNLPSPAIMQDTQHERLAFMAQYGIDMQVLSYGNSSPQNLSPEQAVPLSQLANDELAKAVVAHPDRYAGLAVLPVGDPQAAVAELNRAVTTLGLRGVLLKGNYQNKFFDEPFFLPIFEAAAALDVPVYFHPSFIPQAVTSHYFESNQWSDVVTGILSSAGYGWHMDVGIQVIRMIASGIFDKLPGLKLISGHWGELVPLFLERLDDELTTYTDLQYPFSTYYRHNVYVTPSGILSAPQLQFMLAEMGADHLMYSIDYPYKQPETSGSFLDIADLTDEQRAQIAFGTATTLFKL
# B6: 42 (protein)
# chain: MAQGKIALEEHFAIPDTLQDSAGFVPGDYWKELSARLLDIHEQRLMQMDAYGIEKMILSLNAPAVQAIPDKAKALEISRRANDFLAEQCARNPDRFLGFAALPLQDPDAATAELQRCVKTLGFVGALVNGFSQEGDGVTPLYYDLPQYRGFWAEVEKLAVPFYLHPRNPLPQDSRIYAGHPWLMGPTWAFAQETAVHALRLVGSGLFDDHPALRIILGHMGEGLPYMMWRIDNRNAWVKVAPNYPAKRRIADYFNENFYITTSGNFRTQSLVDAMLEIGADRILFSTDWPFENIDHASDWFDTATISEADRLKIGRTNAATLFNLES
# modifications: Agrobacterium radiobacter
# B7: 43 (protein, listed as Rhizobium leguminosarum)
# chain: MAQGKIALEEHFAIPETLQDSAGFVPGDYWTELSARLLDIQDKRLRLMDTHGIEKMILSLNAPAVQAIPDKAKAVEISRRANDFLAEQCVKNPNRFLGFAALPLQDPDAATQELQRCVTTMGFVGALVNGFSQEGDGTTPLYYDLPQYRPFWAEVEKLDVPFYLHPRNPLPQDSRIYAGHSWLMGPTWAFAQETAVHALRLMGSGLFDEHPALRIIVGHMGEGLPYMMWRIDNRNAWVKVEKSYPAKRPIADYFNENFYITTSGNFRTQSLIDAMLEIGADRILFSADWPFENVDHAANWFDSATISEADRLKIGRTNAVSLFKLDR
# B8: 44 (protein, listed as Mycobacterium avium)
# chain: MARIITVEEHFQHPEVSARVAELTGPAVEGLAEFGNAFSLDPDSTARLGGNRLAHMDQVGIDVQVVSHGNGSPGTLQHPEAVELCRRVNNDLAAQIAENPDRFRGFATLPLYDPAAAAEELRRCVGDLGFVGALIAGSYDGLFLDDERFDPILTAAEAVDFPIYVHPGLPEAPVSQRYYAGSWPASVHMMFSGPAFGWHAEAGIHIVRLILSGALDRHPTLKLLSGHWGELAAFYLERLDETLGLLPTGLERAPSDYYRQQVWITPSGMYNQNQLNFMTAELGAQRIIYSEDFPYVVRDNVSTFLEQAGLSEADTHAIAHTNAEALLRI
# B9: 45 (protein)
# chain: MANDDLAEVIAAHPDRFAGFAALPMRDPQAAAVELQRAVGTHGFCGAMINGLIEGRFLDDPAFAPLLSTAADLGVPLYLHPSFPPPQVAEIYFGGLAPVLGDLLATAGWGWHAETALHVLRLVATGVFDRLPELWVIVGHMGEMIPFALARIDTVLSPVAQLRQPVAQYFQTNVWFTTSGYTTFPPLQCALSTVGIDRLIFSVDYPYTDNTSARALLDTAPISPVDREKLAHGTVEALLRV
# modifications: Mycobacterium sp
# B10: 46 (protein, listed as Rhodococcus opacus)
# chain: MARIITLEEHYLDPAIAAASAPLARELSPDFAAAYDPASGLSYTPSAQVLQDLGQRRIADMDTHGISMQVLSCLTTQQVPADVAPDLVRAANDTAAAAVRAHPDRFAAFAALPTTAPDAAATELARCIDDLGFVGTMINGRTDGEFLDAPRFDPILATAAARNVPIYLHPAVPPRATSDSNYAGLAPLVTARLQTSAWGWHQETAVHFLHLVLSGVLDRYPNLQFILGHWGEMIPFYLDRLDEALPQAVTNLDRTISDYVRENVYITPSGMFNQAQLQYCVETLGVDRILYSVDYPFIGNDGAVSFLDEANLPDEAKHQIAHQNTEKLLGL
# B11: 47 (protein, listed as Serratia odorifera)
# chain: MAKIICLEEHTLDKALVMASMPAALAQAPFLSDWGKTITDGNLPDRSRPQIEKNDLINVKGADIGRGRLDDMDEAGITMQVLSVGGFPHLISAAEGVDLNRAANDRLANAVNAHPDRFAAFATLPWAQPDAAEKELERAVKELGFKGALLNGRPSIHFLDHPDYDGLLARFNALGVPLYLHPGLPVRSVQQAYYSGFSDEVTARLSMFGWGWHHEAGIHLLRLILSGAFDKYPNLQVISGHWGEMLPFWLQRLDDSLPQAATGLRRTITQTFREQVYVTPSGMLTLPHFQFIYALLGAERILFSVDYPYQTLDGVKAFIQSLPVPEEAKEAIAFRNAERLFGLTS
# B12: 48 (protein, listed as Amycolatopsis mediterranei)
# chain: MASMKLYGLEEHFVTADVIEAWRRRDPGLAEPMMKWAVASDITPALLDVDGGRIAAMDDAGIDTTVLSLTTPGLQNLDAAEAVALQAPTNDLIAAAVRRHPGRFQGFATLATSAPAAAADELRRAVTELGLNGALVNANSRGRALDAPGFWDIYEAAEDLRAPVYLHPGVPVPAVTEAYYRGFGEPVNSMLATGAFGWHYDAGLTILRMIVAGVFDRFPGLQVILGHWGEVVLFYLDRVAAMDKLTALRRPIAEYFRSNIFITPGGISSHKYLRWSLETVGVERIMYASDYPFNTERAGSARRFLDTAPVDEAGRERIAYRNWEELIAGIRR
# B13: 49 (protein, listed as Streptomyces sp.)
# chain: MAKIIALEEHFSDPAVAKAGAARARALSPGFAASYSPASGLPYSPSPEVLENLAEKRLADMDAGGITMQVLSGLGAQTVPADVAPALVAGSNDKAAAAVRAHPDRFAAFAALPTATPEAAVAELDRSVNELGFVGTLIMGRTEGEFLDAPRFEPILARAAALKVPVFLHPGVPPREITDSNYAAGLPTGIGTRLQTAAWGWHQETAVHFLHLVHSGVLDRYPDLQFILGHWGEMIPFYLDRVDEALPQRATGLDRSFHEYFRENVYLAPSGMWSQAQLRFCLETVPLERIVFAVDYPFIGNEGAVPFLEKAELPQADKRKIAHENAERLLGL
# B14: 50 (protein, listed as Streptomyces sp.)
# chain: MARIVTLEEHWTDPAVTAAGMPNLLDHVPGYAAAFDPDTGMPYPRHPELLEDLGAARIADMDRHGITTQVLSLVNTFLPADVAPRLTAAANDAMAAAVEAFPGRFAAFATLPTAVPGAAADELRRCVGELGFVGTMIMGRTDGEFLDQPRFDPILRAASDLSVPVYLHPAPPPVAVSEASYAGGLSPAVSAAFRLAAWGWHQETAVHLLHLVLAGVLDRYPGLQFVLGHWGEFIPFYLDRLDESMPRRMTGLDRTFREYFRDNVFITPSGMFSQAQLRYCADTVGTDRIIHSVDFPMLGNEGAVSFLTDSHLSREDQEKIAHGNADALLGLG
# B15: 51 (protein, listed as Mycobacterium gilvum)
# chain: MARVIAIEEHYAHPGLQPAEALANLRKHPQLARIQDKLEDLGAGRLADMDAAGIDMQVLSHTVPGAEALPAAQAVDVVRQTNDDLAEVIAAHPDRFAGFAALPMRDPQAAATELQRAVGTLGFCGAMINGLIEGRFLDHPDFTPLLSTAADLGVPLYLHPSFPPPQVAQIYFGGLPPVLADLLATAGWGWHAETALHVLRLISTGVFDRLPELRVIVGHMGEMIPFALARIDTVLSPMTELRQPVAQYFQTNVWFTTSGYTTFPPLQCALSTVGIDRLIFSVDYPYTDNASARALLDTAPISPVDREKLAHATVEALLRV
# Test: 14C assay with IPTG-induced recombinant E. coli cells (14CO2 capture from [14C]-carboxyl-labeled dicamba)
# Conditions: IPTG-induced recombinant E. coli cells; [14C]-carboxyl-labeled dicamba; 14CO2 capture
row,Molecule,Dicamba Decarboxylase Activity
1,B1,Low
2,B2,Low
3,B3,No
4,B4,Low
5,B5,Low
6,B6,Low
7,B7,High
8,B8,High
9,B9,No
10,B10,High
11,B11,High
12,B12,High
13,B13,High
14,B14,High
15,B15,High

# Same assay, conditions: dicamba decarboxylation activity of the protein of the given SEQ ID NO
row,Molecule,Enzymatic Detection level
1,B1,Low
2,B2,Low
3,B3,No
4,B4,Low
5,B5,Low
6,B6,Low
7,B7,High
8,B8,High
9,B9,No
10,B10,High
11,B11,High
12,B12,High
13,B13,High
14,B14,High
15,B15,High
